The values below come from patent US20210047394A1 (Hoffmann-La Roche, published 2021).

For experiment [1], the target named is T1, full-length Angiopoietin-2-His protein (R&D Systems #623-AN/CF or in house produced material) (human, UniProt O15123 19-496, limits assumed).
T1 sequence: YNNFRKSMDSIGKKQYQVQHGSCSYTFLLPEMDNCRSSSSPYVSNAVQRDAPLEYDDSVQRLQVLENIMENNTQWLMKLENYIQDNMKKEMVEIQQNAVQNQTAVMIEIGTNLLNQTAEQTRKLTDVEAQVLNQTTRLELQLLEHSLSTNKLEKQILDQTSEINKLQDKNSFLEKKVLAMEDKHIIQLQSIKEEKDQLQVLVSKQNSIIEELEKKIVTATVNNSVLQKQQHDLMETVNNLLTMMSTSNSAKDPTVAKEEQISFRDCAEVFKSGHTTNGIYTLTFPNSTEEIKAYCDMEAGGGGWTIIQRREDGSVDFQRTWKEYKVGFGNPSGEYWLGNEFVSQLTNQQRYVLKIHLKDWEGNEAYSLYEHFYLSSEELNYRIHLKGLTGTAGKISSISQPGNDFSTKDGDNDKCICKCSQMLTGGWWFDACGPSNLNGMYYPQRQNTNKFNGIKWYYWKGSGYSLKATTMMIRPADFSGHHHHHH
Nature of the experiment: cell-based or functional assay.

The target in experiment [2] is T1, full-length Angiopoietin-2-His protein …. Nature of the experiment: ANG-2 binding ELISA, coated ANG-2. Background: In an ELISA, binding on a coated surface is turned into a signal by an enzyme label.
Experiment [3] addresses T2, Angiopoietin-1-His (R&D systems #923-AN) (human, UniProt Q15389 20-498, limits assumed).
T2 construct: also called human ANG-1; hANG-1; not shown: His tag
T2 sequence: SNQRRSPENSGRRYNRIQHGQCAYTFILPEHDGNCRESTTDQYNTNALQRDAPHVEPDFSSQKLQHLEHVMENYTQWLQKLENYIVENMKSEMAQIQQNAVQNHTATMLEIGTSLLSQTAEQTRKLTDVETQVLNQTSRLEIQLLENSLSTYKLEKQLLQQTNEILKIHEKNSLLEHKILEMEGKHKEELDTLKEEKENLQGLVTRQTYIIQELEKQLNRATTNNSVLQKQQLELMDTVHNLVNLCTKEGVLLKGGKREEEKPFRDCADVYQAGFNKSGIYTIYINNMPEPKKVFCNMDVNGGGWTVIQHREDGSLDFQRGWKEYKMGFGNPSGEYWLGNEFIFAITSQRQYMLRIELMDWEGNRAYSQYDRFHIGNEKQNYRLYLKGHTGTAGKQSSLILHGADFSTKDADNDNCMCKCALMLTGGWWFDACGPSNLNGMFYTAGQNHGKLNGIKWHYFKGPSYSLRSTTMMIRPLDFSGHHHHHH
The experiment is described as follows: ANG-1 binding ELISA, coated ANG-1.

Experiment [4] addresses T3, rhVEGF (R&D Systems Cat. No. 293-VE) (human, UniProt P15692 181-395).
T3 construct: Analyte in the Biacore assays; also called VEGF-A
The experiment is described as follows: SPR (Biacore), hVEGF affinity. In general terms: In SPR one partner is held on a chip, and binding of the other changes the refractive index at the surface.

For experiment [5], the target named is T1, full-length Angiopoietin-2-His protein …. Nature of the experiment: SPR (Biacore), antibody captured by secondary antibody, ANG-2 analyte; KD only a relative estimation.
In experiment [6] the target is T3, rhVEGF (R&D Systems Cat. No. 293-VE). Nature of the experiment: SPR (Biacore T100), antibody captured via anti-human IgG, rhVEGF analyte, 37 C.
Experiment [7] has as its target T4, full-length VEGF165-His protein (R&D Systems) (human, UniProt P15692 181-395).
T4 construct: also called recombinant human VEGF165; VEGF-A; not shown: His tag
Nature of the experiment: VEGF binding ELISA, coated VEGF165.

The target of experiment [8] is T1, full-length Angiopoietin-2-His protein …. The experiment is described as follows: inhibition of huANG-2 binding to coated Tie-2 (ELISA).
Experiment [9] addresses T3, rhVEGF (R&D Systems Cat. No. 293-VE). The experiment is described as follows: SPR (Biacore), antibody on captured Ang-2, then rhVEGF.
The target of experiment [10] is T1, full-length Angiopoietin-2-His protein …. Nature of the experiment: SPR (Biacore T100), antibody captured via anti-hIgG-Fc, ANG-2-His analyte, 25 C; relative estimation.

Residue numbers refer to the chain shown, from its start.

T3 sequence (P15692 other isoform, or with tags, fused parts or gaps limits assumed): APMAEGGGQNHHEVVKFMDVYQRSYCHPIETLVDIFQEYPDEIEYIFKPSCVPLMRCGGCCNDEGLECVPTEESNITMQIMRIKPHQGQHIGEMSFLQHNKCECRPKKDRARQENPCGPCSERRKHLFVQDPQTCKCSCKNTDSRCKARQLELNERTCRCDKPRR
T4 sequence (P15692 other isoform, or with tags, fused parts or gaps): as the sequence (P15692 other isoform, or with tags, fused parts or gaps limits assumed) above

B1: <ANG-2>Ang2i_LC06 (antibody, V domains shown)
VH: not shown
VL: QPGLTQPPSVSVAPGQTARITCGGNNIGSKSVHWYQQKPGQAPVLVVYDDSDRPSGIPERFSGSNSGNTATLTISRVEAGDEADYYCQVWDSSSDHYVFGTGTKVTVLG
notes: Parent monospecific antibody
Usually EC50 stands for the concentration at which the effect is half-maximal. A low value points to an effect from little substance. B1: in experiment [1], the “IC50, ANGPT2 stimulated Tie2 phosphorylation (HEK293-Tie2 cells), first experiment” value was roughly 0.508 µg/mL and the “IC50, ANGPT2 stimulated Tie2 phosphorylation (HEK293-Tie2 cells), second experiment” value is roughly 0.424 µg/mL. For the same molecule, the concentration giving a half-maximal response (EC50) in experiment [2] is 0.084 µg/mL. Further, in experiment [3], the 50% effective concentration (EC50) is greater than 8 µg/mL.

B2: <ANG-2> Ang2k_LC08 (antibody, V domains shown)
VH: QVQLVESGGGVVQPGGSLRLSCAASGFTFSSYGMHWVRQAPGKGLEWVAVISYDGSNKYYADSVKGRFTISRDNSKNTLYLQMNSLRAEDTAVYYCAKPTLDIYMGYYYGMDVWGQGTTVTVSS
VL: QPVLTQPPSASGAPGQRVTISCSGFASNIGSNSVNWYQQVPGTAPKLLIYNNDQRPSGVPDRFSGSRSGTSASLAISGLQSEDEADYYCAAWDDSLNGPVFGGGTKLTVLG
notes: Parent monospecific antibody; also called <ANG-2>Ang2i-LC08
On to B2, for which, in experiment [1], the “IC50, ANGPT2 stimulated Tie2 phosphorylation (HEK293-Tie2 cells), first experiment” value is roughly 0.499 µg/mL and the “IC50, ANGPT2 stimulated Tie2 phosphorylation (HEK293-Tie2 cells), second experiment” value is roughly 0.399 µg/mL. The molecule further showed an EC50 in experiment [2] of 0.105 µg/mL. For the same molecule, it took 4.04 µg/mL to reach a half-maximal effect in experiment [3] (EC50).

B3: Bevacizumab-LC06-VH-VL (bispecific antibody, human IgG1, kappa)
heavy 1: not shown
heavy 2: not shown
light 1: QPGLTQPPSVSVAPGQTARITCGGNNIGSKSVHWYQQKPGQAPVLVVYDDSDRPSGIPERFSGSNSGNTATLTISRVEAGDEADYYCQVWDSSSDHYVFGTGTKVTVLRTVAAPSVFIFPPSDEQLKSGTASVVCLLNNFYPREAKVQWKVDNALQSGNSQESVTEQDSKDSTYSLSSTLTLSKADYEKHKVYACEVTHQGLSSPVTKSFNRGEC
light 2: EVQLVESGGGLVQPGGSLRLSCAASGYTFTNYGMNWVRQAPGKGLEWVGWINTYTGEPTYAADFKRRFTFSLDTSKSTAYLQMNSLRAEDTAVYYCAKYPHYYGSSHWYFDVWGQGTLVTVSSASVAAPSVFIFPPSDEQLKSGTASVVCLLNNFYPREAKVQWKVDNALQSGNSQESVTEQDSKDSTYSLSSTLTLSKADYEKHKVYACEVTHQGLSSPVTKSFNRGEC
notes: Bispecific, bivalent domain exchanged antibody (VH-VL exchange); also called Bevacizumab-LC06-CM-VH-VL
A word on the Kd: it is the free concentration of one partner at which half of the binding sites on the other are occupied at equilibrium, for simple one-to-one binding. Turning to B3, binding in [4] was put at a Kd of 0.1 nM.

B4: Bevacizumab-LC06-VH-VL-SS (bispecific antibody, human IgG1, kappa)
heavy 1: not shown
heavy 2: not shown
light 1: B3 light 1 with T101C
light 2: B3 light 2
notes: Bispecific, bivalent domain exchanged antibody (VH-VL exchange and an additional VH44 VL100 disulfide bridge)
Regarding B4, the Kd in [4] is 0.1 nM.

B5: disulfide-stabilized <VEGF-ANG-2> TvAb6 (bispecific antibody, IgG1)
heavy (part 1 of 2): EVQLVESGGGLVQPGGSLRLSCAASGFTISDYWIHWVRQAPGKGLEWVAGITPAGGYTYYADSVKGRFTISADTSKNTAYLQMNSLRAEDTAVYYCARFVFFLPYAMDYWGQGTLVTVSS
heavy (part 2 of 2): not shown
light: DIQMTQSPSSLSASVGDRVTITCRASQDVSTAVAWYQQKPGKAPKLLIYSASFLYSGVPSRFSGSGSGTDFTLTISSLQPEDFATYYCQQGYGNPFTFGQGTKVEIK
notes: Tetravalent: full-length IgG1 G6-31 with a VH44/VL100 disulfide-stabilized Mab536 scFv at the C-terminus of each heavy chain; also called TvAb6 (2331); No. 2331; not shown: IgG1 heavy chain constant region; light chain constant region
The term koff denotes the first-order rate constant of dissociation. Low values mean a long-lived complex, high ones a short-lived complex. The term kon denotes the rate constant with which the complex forms. Low readings indicate slow association, high ones fast association. In the case of B5, the Kd in [5] was 4.4 nM. Further, in [6], the Kd stood at 0.00153 nM, the off-rate (koff) amounted to 7.24e-06 s⁻¹, the kon was 4.72e+06 M⁻¹ s⁻¹ and the t1/2 came to 26.6 h.

B6: <ANG-2>Ang2i_LC07 (antibody, V domains shown)
VH: not shown
VL: QPVLTQSPSVSVAPGETARVACGGNFIGGKSVHWYQQKPGQAPVLVIYDDSERPSGIPERISGSNSGNTATLIITRAEAGDEADYHCQVWDSDSDQGVFGTGTKLTVLG
notes: Parent monospecific antibody
For B6, the concentration giving a half-maximal response (EC50) in experiment [2] was 3.01 µg/mL; in experiment [3], greater than 8 µg/mL.

B7: <ANG-2> Mab536 (antibody, V domains shown)
VH: EVQLVQSGGGVVQPGRSLRLSCAASGFTFSSYGMHWVRQAPGKGLEWVSYISSSGSTIYYADSVKGRFTISRDNAKNSLYLQMNSLRAEDTAVYYCARDLLDYDILTGYGYWGQGTLVTVSS
VL: not shown
notes: monospecific 'standard' IgG1 antibody; also called Mab536 (1000)
In general, IC50 refers to the concentration at which inhibition is half-maximal. The low end stands for inhibition by little substance, the high end for a need for much substance. In the case of B7, the binding result is on record as “no binding” in experiment [7] and “no binding (tested: 150 nM VEGF)” in [9]. In experiment [8], the half-inhibitory concentration (IC50) was 0.015 µg/mL. Moreover, the results for the dissociation constant (Kd) in experiment [5] and in experiment [10] were 1.6 nM and 3 nM, respectively. Also, the EC50 in experiment [2] is 0.133 µg/mL; in experiment [3], 2.54 µg/mL.
